According to article doi:10.1101/2024.01.24.577054 (bioRxiv, 2024):

Target: the molecule itself
Assay: FRET or BRET

B1: BmrA, homodimeric multi-drug resistance ABC exporter from B. subtilis (His-C-ter-BmrA), labelled with sulfo-Cy3/sulfo-Cy5 (natural protein, UniProt O06967 1-589, looked up)
chain: MPTKKQKSKSKLKPFFALVRRTNPSYGKLAFALALSVVTTLVSLLIPLLTKQLVDGFSMSNLSGTQIGLIALVFFVQAGLSAYATYALNYNGQKIISGLRELLWKKLIKLPVSYFDTNASGETVSRVTNDTMVVKELITTHISGFITGIISVIGSLTILFIMNWKLTLLVLVVVPLAALILVPIGRKMFSISRETQDETARFTGLLNQILPEIRLVKASNAEDVEYGRGKMGISSLFKLGVREAKVQSLVGPLISLVLMAALVAVIGYGGMQVSSGELTAGALVAFILYLFQIIMPMGQITTFFTQLQKSIGATERMIEILAEEEEDTVTGKQIENAHLPIQLDRVSFGYKPDQLILKEVSAVIEAGKVTAIVGPSGGGKTTLFKLLERFYSPTAGTIRLGDEPVDTYSLESWREHIGYVSQESPLMSGTIRENICYGLERDVTDAEIEKAAEMAYALNFIKELPNQFDTEVGERGIMLSGGQRQRIAIARALLRNPSILMLDEATSSLDSQSEKSVQQALEVLMEGRTTIVIAHRLSTVVDADQLLFVEKGEITGRGTHHELMASHGLYRDFAEQQLKMNADLENKAG
modifications: sulfo-Cy3 or sulfo-Cy5 maleimide dye on C436 (the sole Cys residue of each monomer)
- binding result: binds
